Experimental findings from article PMC12129041, “Unique characteristics of autoantibodies targeting MET in patients with breast and lung cancer” (JCI Insight, 2025) are described below.

Assay [1] deals with T1, extracellular portion of MET (EC-MET) (human, UniProt P08581).
T1 construct: MET, human, 908-amino acid extracellular portion; tags printed as HHHHHH and …; EC-MET was biotinylated with BirA for cell sorting only; also called recombinant ectodomain of MET; source: Expi293F, transient transfection, purified from supernatant (Ni-NTA); not shown: His6, C-terminal, kept; Avi-Tag, C-terminal, kept
T1 sequence (P08581 25-932): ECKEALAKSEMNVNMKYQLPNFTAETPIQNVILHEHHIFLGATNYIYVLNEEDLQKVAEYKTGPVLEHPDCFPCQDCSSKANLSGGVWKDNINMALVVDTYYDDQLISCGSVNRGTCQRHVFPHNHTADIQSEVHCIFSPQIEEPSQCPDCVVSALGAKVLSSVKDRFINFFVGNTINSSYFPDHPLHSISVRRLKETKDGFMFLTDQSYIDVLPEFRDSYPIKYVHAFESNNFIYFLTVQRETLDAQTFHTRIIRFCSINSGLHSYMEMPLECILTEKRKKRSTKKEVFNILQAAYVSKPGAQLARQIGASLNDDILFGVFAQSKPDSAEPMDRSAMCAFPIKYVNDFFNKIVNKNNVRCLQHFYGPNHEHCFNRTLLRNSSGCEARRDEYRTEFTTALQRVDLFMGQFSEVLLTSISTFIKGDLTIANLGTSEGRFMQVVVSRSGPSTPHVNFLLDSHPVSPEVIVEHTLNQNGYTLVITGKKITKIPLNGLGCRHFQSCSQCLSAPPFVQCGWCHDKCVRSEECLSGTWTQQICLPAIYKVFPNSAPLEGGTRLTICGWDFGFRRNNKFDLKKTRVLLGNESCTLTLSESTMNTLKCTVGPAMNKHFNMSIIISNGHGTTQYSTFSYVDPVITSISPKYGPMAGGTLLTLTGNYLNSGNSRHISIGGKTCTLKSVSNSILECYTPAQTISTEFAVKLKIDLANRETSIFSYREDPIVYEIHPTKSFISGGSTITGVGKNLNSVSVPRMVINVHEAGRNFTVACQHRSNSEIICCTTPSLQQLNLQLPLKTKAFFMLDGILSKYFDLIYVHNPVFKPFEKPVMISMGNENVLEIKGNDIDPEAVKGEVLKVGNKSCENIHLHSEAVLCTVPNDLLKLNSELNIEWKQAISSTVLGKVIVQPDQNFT
The assay can be described thus: ELISA; plates coated with 1 μg/mL MET or SEMA in PBS overnight at 4°C; blocked with PBS, 3% BSA, 20 mM EDTA, 0.05% Tween 20; mAbs from 64 μg/mL in 4-fold dilutions, 1 h room temperature; anti-IgG-HRP, OD650. The note with it: both partners purified. (In general: An ELISA detects its analyte on a solid surface through an enzyme-linked reagent.)

Assay [2] deals with T2, SEMA, the ligand-binding domain of MET (Homo sapiens, UniProt P08581).
T2 construct: source: Expi293F, transient transfection, purified from supernatant (Ni-NTA); not shown: His6, C-terminal, kept; Avi-Tag, C-terminal, kept
T2 sequence (P08581 27-515): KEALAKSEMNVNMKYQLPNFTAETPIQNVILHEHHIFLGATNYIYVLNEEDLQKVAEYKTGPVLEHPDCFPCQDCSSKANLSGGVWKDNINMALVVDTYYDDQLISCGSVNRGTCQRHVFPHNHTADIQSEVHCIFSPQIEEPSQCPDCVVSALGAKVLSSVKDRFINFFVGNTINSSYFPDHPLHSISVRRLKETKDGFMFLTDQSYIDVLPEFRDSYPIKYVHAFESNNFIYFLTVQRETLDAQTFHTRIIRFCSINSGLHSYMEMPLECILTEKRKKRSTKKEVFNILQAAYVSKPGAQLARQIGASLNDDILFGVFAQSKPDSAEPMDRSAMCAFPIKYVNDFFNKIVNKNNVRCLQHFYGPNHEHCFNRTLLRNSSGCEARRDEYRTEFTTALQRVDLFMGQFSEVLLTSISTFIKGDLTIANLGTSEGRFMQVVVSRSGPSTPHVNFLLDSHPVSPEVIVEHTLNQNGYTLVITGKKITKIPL
The description is as above. The following applies: both partners purified.

B1: mAb 69B253 (antibody, V domains shown)
VH: EVQLVESGGALVQPGGSLRLSCAASGFTFSSYGMGWVRQAPGKGLEWVSVIIGSGGSTSYVDSVRGRFTISRDNSRNMVYLQMSSLTVDDTAVYYCAKAACGVGFCYRSHWGQGTRVTVSS
VL: SLSVSPGETVTLSCRASQSVSSNLAWYQHKPGQAPRLLIHDASTRATGIPVRFSGSGSGTDFTLTISSLQSEDFAVYYCQHYYNWPYGFAQGTKLEIK
notes: heavy chain V(D)J region; light chain VJ region; light chain constant region of the Ig expression vector; Cloned from a MET-enriched B cell of a cancer patient; detected with anti-IgG secondary antibody; source: Expi293F, cotransfected heavy and light chain vectors, purified (protein A)
Turning to B1, the binding result in assay [1] and in assay [2] was “binds” throughout.
